B2: BCCIPα-ΔS (residues 50 to 322 with deletions of residues 112 to 122, 235 to 243, and 273 to 276) (domain or fragment, human, UniProt Q9P287-2 50-322, looked up)
chain: DEVIDEEVNIEFEAYSLSDNDYDGIKKLLQQLFLKAPVNTAELTDLLIQQNHIGSVIKQTDVEVFGFISLLNLTERKGTQCVEQIQELVLRFCEKNCEKSMVEQLDKFLNDTTKPVGLLLSERFINVPPQIALPMYQQLQKELAGAHRTNKPCGKCYFYLLISKTFVEAGKNNSAALMFANAEEEFFYEEQGKPEVLGGPDTRPVPIQHNGGSRGQVTALVSLKAGLIQSRSTLSDFQGTFMTVGIALS
notes: human BCCIPα residues 50 to 322 with three loop deletions; source: E. coli BL21 (DE3), purified (Ni-NTA, on-column 3C cleavage, Resource Q); not shown: His6, N-terminal, cleaved

How the values were obtained:
[1] = target: T1, Full-length human FAM46C with a FLAG-tag (human, UniProt Q5VWP2 1-391); experiment: cell-based or functional assay
T1 sequence (looked up): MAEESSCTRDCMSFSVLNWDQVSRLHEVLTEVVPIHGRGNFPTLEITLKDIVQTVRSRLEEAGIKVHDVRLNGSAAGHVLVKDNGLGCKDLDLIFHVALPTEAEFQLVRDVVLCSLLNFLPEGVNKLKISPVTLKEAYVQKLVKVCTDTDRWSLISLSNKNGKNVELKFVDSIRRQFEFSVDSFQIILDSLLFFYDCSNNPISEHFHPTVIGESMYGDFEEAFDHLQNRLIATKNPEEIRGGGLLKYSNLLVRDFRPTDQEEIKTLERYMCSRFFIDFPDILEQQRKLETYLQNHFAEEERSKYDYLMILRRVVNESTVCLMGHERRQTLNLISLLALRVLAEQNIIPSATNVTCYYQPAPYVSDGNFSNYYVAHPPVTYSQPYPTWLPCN

[2] = target: T2, Full-length human FAM46A with a FLAG-tag (human, UniProt Q96IP4 1-442); experiment: cell-based or functional assay
T2 sequence (looked up): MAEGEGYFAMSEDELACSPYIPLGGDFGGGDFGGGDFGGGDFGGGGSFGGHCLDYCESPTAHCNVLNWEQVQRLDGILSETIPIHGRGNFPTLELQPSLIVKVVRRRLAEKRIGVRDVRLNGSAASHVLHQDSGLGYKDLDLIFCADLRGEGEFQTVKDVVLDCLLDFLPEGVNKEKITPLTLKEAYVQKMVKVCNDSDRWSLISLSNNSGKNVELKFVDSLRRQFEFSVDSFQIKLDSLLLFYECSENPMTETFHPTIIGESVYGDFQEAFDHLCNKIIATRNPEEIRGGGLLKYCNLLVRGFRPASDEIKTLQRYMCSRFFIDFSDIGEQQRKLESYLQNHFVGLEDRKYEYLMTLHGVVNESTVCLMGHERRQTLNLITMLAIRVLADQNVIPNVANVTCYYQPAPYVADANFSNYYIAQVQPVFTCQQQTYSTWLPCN

[3] = target: T3, FAM46A (residues 64 to 394) (human, UniProt Q96IP4 64-394); experiment: crystal structure; FAM46A (64-394) with BCCIPα-ΔS (3.5 Å) or BCCIPα-ΔL (3.2 Å); complexes mixed 1:1 and purified on Superdex 200; settings: both partners purified
T3 construct: human FAM46A (TENT5A) residues 64 to 394; also called TENT5A; source: E. coli BL21 (DE3), purified (Ni-NTA, on-column 3C cleavage, Resource Q); not shown: His6, N-terminal, cleaved
T3 sequence (looked up): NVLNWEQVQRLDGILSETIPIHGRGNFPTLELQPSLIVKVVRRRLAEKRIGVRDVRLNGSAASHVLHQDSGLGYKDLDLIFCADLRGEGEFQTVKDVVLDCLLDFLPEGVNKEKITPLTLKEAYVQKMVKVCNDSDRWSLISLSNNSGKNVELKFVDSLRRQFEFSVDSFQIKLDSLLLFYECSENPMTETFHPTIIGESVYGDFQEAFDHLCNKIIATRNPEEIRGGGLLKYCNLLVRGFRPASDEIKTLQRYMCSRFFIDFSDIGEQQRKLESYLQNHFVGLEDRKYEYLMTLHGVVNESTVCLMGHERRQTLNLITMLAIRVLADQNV

[4] = target: T4, FAM46C/BCCIPα-ΔS complex (human, UniProt Q5VWP2 1-391; Q9P287-2 50-322, deletions of residues 112 to 122 | deletions of residues 235 to 243 | deletions …); experiment: cryo-EM structure; FAM46C/BCCIPα-ΔS/Nb.1 mixed 1:1:2, purified on Superdex 200; filament segments treated as single particles, D2 symmetry, 6.5 Å; models docked as rigid bodies; settings: both partners purified
T4 construct: human FAM46C (TENT5C), as m15; Avi-tagged, biotinylated FAM46C residues 15 to 350 in the nanobody screening; human BCCIPα residues 50 to 322 with three loop deletions, as m12; with Nb.1 it forms a 4:4:4 assembly of four 1:1:1 units and filaments; also called FAM46C/BCCIPα complex; FAM46C/BCCPα complex; source: E. coli BL21 (DE3), each protein purified, then mixed; not shown: His6, N-terminal, …

[5] = target: B2; experiment: as above; settings: both partners purified

B1: BCCIPα with a Myc-tag (natural protein, human, UniProt Q9P287-2 1-322, looked up)
chain: MASRSKRRAVESGVPQPPDPPVQRDEEEEKEVENEDEDDDDSDKEKDEEDEVIDEEVNIEFEAYSLSDNDYDGIKKLLQQLFLKAPVNTAELTDLLIQQNHIGSVIKQTDVSEDSNDDMDEDEVFGFISLLNLTERKGTQCVEQIQELVLRFCEKNCEKSMVEQLDKFLNDTTKPVGLLLSERFINVPPQIALPMYQQLQKELAGAHRTNKPCGKCYFYLLISKTFVEAGKNNSKKKPSNKKKAALMFANAEEEFFYEEQGKPEVLGGPDTRRGLEPVPIQHNGGSRGQVTALVSLKAGLIQSRSTLSDFQGTFMTVGIALS
B1 was tested, and the “mean nucleus/cytoplasm intensity ratio of FAM46C in U2OS cells coexpressing BCCIPα (immunofluorescence; 1.94 without BCCIPα)” value [1] was 3.04 and the “mean nucleus/cytoplasm intensity ratio of FAM46A in U2OS cells coexpressing BCCIPα (immunofluorescence; 1.90 without BCCIPα)” value [2] was 2.85.

B2: binds [3].

B3: Nb.1 (VHH)
VHH: QVQLQESGGGLVQAGGSLRLSCAASGTISPRGVMGWYRQAPGKEREFVAAINYGGTTYYADSVKGRFTISRDNAKNTVYLQMNSLKPEDTAVYYCAVYYYINSQRKVLLYWGQGTQVTVSS
notes: nanobody selected from a synthetic yeast-display library; cloned into a modified pET28 vector; also called nanobody Nb.1
With B3 the “stoichiometry N” value [4] was 1 and the binding result [5] was “binds”.

B4: BCCIPα-ΔL (residues 50 to 322 with deletions of residues 112 to 122 and 231 to 280) (domain or fragment, human, UniProt Q9P287-2 50-322, looked up)
chain: DEVIDEEVNIEFEAYSLSDNDYDGIKKLLQQLFLKAPVNTAELTDLLIQQNHIGSVIKQTDVEVFGFISLLNLTERKGTQCVEQIQELVLRFCEKNCEKSMVEQLDKFLNDTTKPVGLLLSERFINVPPQIALPMYQQLQKELAGAHRTNKPCGKCYFYLLISKTFVEAGQHNGGSRGQVTALVSLKAGLIQSRSTLSDFQGTFMTVGIALS
notes: human BCCIPα residues 50 to 322 with two loop deletions; source: E. coli BL21 (DE3), purified (Ni-NTA, on-column 3C cleavage, Resource Q); not shown: His6, N-terminal, cleaved
B4: binds [3].

From paper PMC10075960, “Inhibition of FAM46/TENT5 activity by BCCIPα adopting a unique fold” (Science Advances, 2023)
